Reference: the supplement of paper PMC10724198
± gives the standard deviation of the averaged measurements.

Tested on: Saccharomyces cerevisiae
Assay: protein stability index of tFT-peptide fusion (C-terminal peptide) (PSI (0-1 scale)); higher = more stable (slower turnover)
Settings: temperature: 30 C
Procedure: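 MPS profiling in S. cerevisiae of the yeast C-terminome library: the last 12 aa of each annotated ORF are fused to the C-terminus of a sfGFP-mCherry timer, after a GGGS linker. Cells are FACS-sorted into 8 mCherry/sfGFP bins and deep-sequenced. PSI runs from 0 (unstable) to 1 (stable); wild type and das1Δ backgrounds, two technical replicates each.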

[1] = genetic background: das1 deletion

VVFLSVLKRNDL [YOL099C C-terminal 12 aa]
protein stability index [1]: 0.685 ± 0.031 | protein stability index (genetic background: wild type): 0.772 ± 0.11

VVPVLMGNMKVA [YEL073C C-terminal 12 aa]
protein stability index [1]: 0.69 ± 0.01 | protein stability index (genetic background: wild type): 0.634 ± 0.053

VWTLELSVIGVQ [WHI2 C-terminal 12 aa]
protein stability index [1]: 0.542 ± 0.011 | protein stability index (genetic background: wild type): 0.572 ± 0.011

WAINESEGYGFR [HUL4 C-terminal 12 aa]
protein stability index [1]: 0.727 ± 0.016 | protein stability index (genetic background: wild type): 0.708 ± 0.051

WAREQQKRQLSL [KAP95 C-terminal 12 aa]
protein stability index [1]: 0.725 ± 0.0096 | protein stability index (genetic background: wild type): 0.729 ± 0.019

WKEVLKFPKSFN [HXT15 C-terminal 12 aa]
protein stability index [1]: 0.724 ± 0.0077 | protein stability index (genetic background: wild type): 0.714 ± 0.031

WKKFIPKTWLSS [CQD2 C-terminal 12 aa]
protein stability index [1]: 0.7 ± 0.0086 | protein stability index (genetic background: wild type): 0.4878 ± 0.0047

WKKFLKFSKNSD [HXT13 C-terminal 12 aa]
protein stability index [1]: 0.7176 ± 0.0052 | protein stability index (genetic background: wild type): 0.685 ± 0.039

WKLLDDSELGWY [RGT1 C-terminal 12 aa]
protein stability index [1]: 0.836 ± 0.0089 | protein stability index (genetic background: wild type): 0.804 ± 0.052

WLKDQIIGEMTV [CAL4 C-terminal 12 aa]
protein stability index [1]: 0.696 ± 0.036 | protein stability index (genetic background: wild type): 0.678 ± 0.025

WPVTKPEDTKDN [ZWF1 C-terminal 12 aa]
protein stability index [1]: 0.699 ± 0.013 | protein stability index (genetic background: wild type): 0.67 ± 0.018

WRPQQPGQIEQA [YLR101C C-terminal 12 aa]
protein stability index [1]: 0.723 ± 0.03 | protein stability index (genetic background: wild type): 0.6668 ± 0.00094

WTKDLGCWSLYK [HIR1 C-terminal 12 aa]
protein stability index [1]: 0.716 ± 0.025 | protein stability index (genetic background: wild type): 0.6994 ± 0.0037

WTNYLEKESEKD [RUD3 C-terminal 12 aa]
protein stability index [1]: 0.711 ± 0.04 | protein stability index (genetic background: wild type): 0.693 ± 0.045

YAEGSLVKTEKL [FAA2 C-terminal 12 aa]
protein stability index [1]: 0.70242 ± 0.0001 | protein stability index (genetic background: wild type): 0.698 ± 0.016

YCFAKNDLFFNN [POM152 C-terminal 12 aa]
protein stability index [1]: 0.743 ± 0.014 | protein stability index (genetic background: wild type): 0.716 ± 0.011

YCPELGKTECFD [FMP30 C-terminal 12 aa]
protein stability index [1]: 0.691 ± 0.0061 | protein stability index (genetic background: wild type): 0.69 ± 0.0088

YDANGSSSTIKR [MAM3 C-terminal 12 aa]
protein stability index [1]: 0.736 ± 0.011 | protein stability index (genetic background: wild type): 0.7007 ± 0.00097

YDEIVPLMSDEE [ECM21 C-terminal 12 aa]
protein stability index [1]: 0.7035 ± 0.0035 | protein stability index (genetic background: wild type): 0.716 ± 0.057

YDLQALFKYFFS [ADY3 C-terminal 12 aa]
protein stability index [1]: 0.691 ± 0.011 | protein stability index (genetic background: wild type): 0.64 ± 0.022

YFKVFDWCKQKR [CLB6 C-terminal 12 aa]
protein stability index [1]: 0.681 ± 0.018 | protein stability index (genetic background: wild type): 0.684 ± 0.043

YISDHIWKTSSH [YOR302W C-terminal 12 aa]
protein stability index [1]: 0.743 ± 0.04 | protein stability index (genetic background: wild type): 0.698 ± 0.035

YKNRPNKEKDTL [STB6 C-terminal 12 aa]
protein stability index [1]: 0.693 ± 0.021 | protein stability index (genetic background: wild type): 0.688 ± 0.047

YKSKRNTPTMLS [ISU1 C-terminal 12 aa]
protein stability index [1]: 0.714 ± 0.027 | protein stability index (genetic background: wild type): 0.653 ± 0.026

YLARRKPSIELR [YPR170W-B C-terminal 12 aa]
protein stability index [1]: 0.716 ± 0.03 | protein stability index (genetic background: wild type): 0.7212 ± 0.0052

YLKNFFVKQKVV [ERP5 C-terminal 12 aa]
protein stability index [1]: 0.549 ± 0.0073 | protein stability index (genetic background: wild type): 0.16 ± 0.026

YLLENEPKDSFA [DCP1 C-terminal 12 aa]
protein stability index [1]: 0.703 ± 0.032 | protein stability index (genetic background: wild type): 0.731 ± 0.029

YLNCTEREALRP [AEP1 C-terminal 12 aa]
protein stability index [1]: 0.6794 ± 0.0038 | protein stability index (genetic background: wild type): 0.752 ± 0.076

YNIKRVLGVVYC [YAL067W-A C-terminal 12 aa]
protein stability index [1]: 0.345 ± 0.031 | protein stability index (genetic background: wild type): 0.362 ± 0.0077

YNPGLSMDFLTA [BCD1 C-terminal 12 aa]
protein stability index [1]: 0.6899 ± 0.0018 | protein stability index (genetic background: wild type): 0.714 ± 0.014

YNSLKKGASKSK [CNL1 C-terminal 12 aa]
protein stability index [1]: 0.714 ± 0.021 | protein stability index (genetic background: wild type): 0.74 ± 0.071

YNTTSITNSTSW [SRL1 C-terminal 12 aa]
protein stability index [1]: 0.711 ± 0.016 | protein stability index (genetic background: wild type): 0.722 ± 0.09

YPGAKTLTYTSR [CMI8 C-terminal 12 aa]
protein stability index [1]: 0.703 ± 0.013 | protein stability index (genetic background: wild type): 0.673 ± 0.01

YPTFDDNNFFAL [RFA2 C-terminal 12 aa]
protein stability index [1]: 0.732 ± 0.012 | protein stability index (genetic background: wild type): 0.717 ± 0.0086

YSDEASAQKKRF [RPS2 C-terminal 12 aa]
protein stability index [1]: 0.698 ± 0.0098 | protein stability index (genetic background: wild type): 0.709 ± 0.039

YTPDQGVSLIDL [ENT2 C-terminal 12 aa]
protein stability index [1]: 0.6978 ± 0.005 | protein stability index (genetic background: wild type): 0.7 ± 0.015

YTSWQTIKMWSQ [AVT3 C-terminal 12 aa]
protein stability index [1]: 0.658 ± 0.007 | protein stability index (genetic background: wild type): 0.654 ± 0.029

YVPPPTYTEMAS [ART10 C-terminal 12 aa]
protein stability index [1]: 0.7074 ± 0.0038 | protein stability index (genetic background: wild type): 0.66 ± 0.011

YVSHKGFITEDL [RPL9A C-terminal 12 aa]
protein stability index [1]: 0.689 ± 0.055 | protein stability index (genetic background: wild type): 0.679 ± 0.035
